Reference: article PMC2034482
Like-named read-outs stand apart in the source and are kept apart here.

B1: D20 (dsDNA)
DNA 1: CGCCATGGTGATCCGAGTGC
DNA 2: CACTGGCCGTCTTACGGTCGGCACTCGGATCACCATGGCG
B2: R20 (DNA:RNA)
RNA: CGCCAUGGUGAUCCGAGUGC
DNA: B1 DNA 2
modifications: top strand RNA, bottom strand DNA
B3: fR20 (DNA:RNA)
RNA: CGCCAUGGUGAUCCGAGUGCAAAAAAAAAA
DNA: B1 DNA 2
modifications: top strand RNA, bottom strand DNA
B4: fD20 (dsDNA)
DNA 1: CGCCATGGTGATCCGAGTGCAAAAAAAAAA
DNA 2: B1 DNA 2

Tests used:
Pif1p (nuclear isoform) [1] = biological target: T1, Pif1p (nuclear isoform) (Saccharomyces cerevisiae, UniProt P07271 40-859); experiment: EMSA
T1 sequence: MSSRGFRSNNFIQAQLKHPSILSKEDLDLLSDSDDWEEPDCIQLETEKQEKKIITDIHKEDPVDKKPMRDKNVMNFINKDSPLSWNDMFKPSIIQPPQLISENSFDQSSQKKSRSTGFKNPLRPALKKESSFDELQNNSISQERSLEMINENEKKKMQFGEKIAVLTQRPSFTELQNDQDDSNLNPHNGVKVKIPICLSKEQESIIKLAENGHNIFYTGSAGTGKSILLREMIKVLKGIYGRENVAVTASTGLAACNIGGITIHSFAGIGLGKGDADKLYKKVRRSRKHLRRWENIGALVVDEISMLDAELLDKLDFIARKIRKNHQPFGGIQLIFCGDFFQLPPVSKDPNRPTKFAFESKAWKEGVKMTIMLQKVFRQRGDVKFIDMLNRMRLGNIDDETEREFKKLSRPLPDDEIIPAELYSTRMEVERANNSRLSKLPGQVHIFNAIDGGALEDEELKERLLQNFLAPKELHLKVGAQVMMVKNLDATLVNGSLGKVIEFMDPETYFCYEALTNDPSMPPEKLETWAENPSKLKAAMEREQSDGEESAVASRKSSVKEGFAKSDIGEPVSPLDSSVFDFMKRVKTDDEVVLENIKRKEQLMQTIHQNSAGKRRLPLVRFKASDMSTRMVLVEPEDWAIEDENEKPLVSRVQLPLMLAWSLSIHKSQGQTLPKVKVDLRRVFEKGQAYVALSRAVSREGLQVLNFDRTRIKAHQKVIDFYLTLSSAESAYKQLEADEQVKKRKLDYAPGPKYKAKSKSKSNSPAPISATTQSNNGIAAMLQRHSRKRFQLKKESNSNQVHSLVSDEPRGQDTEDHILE

Pif1p (nuclear isoform) [2] = biological target: T1, Pif1p (nuclear isoform); experiment: EMSA; remark: listed apart in the source

Binder | Kd (Pif1p (nuclear isoform) [1]) | Kd (Pif1p (nuclear isoform) [2])
B1 | 100 nM | –
B2 | 17 nM | –
B3 | 52 nM | –
B4 | 130 nM | 320 nM
